According to IntAct's records for PubMed 26853155:

B1: Syncytin-2 (Homo sapiens), P60508 (parent)
chain: MGLLLLVLILTPSLAAYRHPDFPLLEKAQQLLQSTGSPYSTNCWLCTSSSTETPGTAYPASPREWTSIEAELHISYRWDPNLKGLMRPANSLLSTVKQDFPDIRQKPPIFGPIFTNINLMGIAPICVMAKRKNGTNVGTLPSTVCNVTFTVDSNQQTYQTYTHNQFRHQPRFPKPPNITFPQGTLLDKSSRFCQGRPSSCSTRNFWFRPADYNQCLQISNLSSTAEWVLLDQTRNSLFWENKTKGANQSQTPCVQVLAGMTIATSYLGISAVSEFFGTSLTPLFHFHISTCLKTQGAFYICGQSIHQCLPSNWTGTCTIGYVTPDIFIAPGNLSLPIPIYGNSPLPRVRRAIHFIPLLAGLGILAGTGTGIAGITKASLTYSQLSKEIANNIDTMAKALTTMQEQIDSLAAVVLQNRRGLDMLTAAQGGICLALDEKCCFWVNQSGKVQDNIRQLLNQASSLRERATQGWLNWEGTWKWFSWVLPLTGPLVSLLLLLLFGPCLLNLITQFVSSRLQAIKLQTNLSAGRHPRNIQESPF
partner: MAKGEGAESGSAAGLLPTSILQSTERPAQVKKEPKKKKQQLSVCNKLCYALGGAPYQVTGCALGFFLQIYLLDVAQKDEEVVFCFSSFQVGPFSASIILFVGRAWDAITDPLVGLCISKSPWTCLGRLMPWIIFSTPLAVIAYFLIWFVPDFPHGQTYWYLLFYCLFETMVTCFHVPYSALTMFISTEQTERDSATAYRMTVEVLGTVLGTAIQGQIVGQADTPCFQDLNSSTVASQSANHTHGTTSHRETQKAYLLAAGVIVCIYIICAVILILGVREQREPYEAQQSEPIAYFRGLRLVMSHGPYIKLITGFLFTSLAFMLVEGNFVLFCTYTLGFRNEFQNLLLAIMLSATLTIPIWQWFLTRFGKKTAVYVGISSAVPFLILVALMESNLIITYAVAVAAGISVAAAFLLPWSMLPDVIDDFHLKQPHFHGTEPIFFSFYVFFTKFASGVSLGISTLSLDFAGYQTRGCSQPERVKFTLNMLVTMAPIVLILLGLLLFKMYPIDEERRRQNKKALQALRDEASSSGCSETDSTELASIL

Variants of: B1
Conditions: with nls1_human MFSD2A

Row | Variant | effect of a mutation on the interaction
1 | MGLLLLVLILTPSLAAYRHPDFPLLEKAQQLLQSTGSPYSTNCWLRTSSSTETPGTAYPASPREWTSIEAELHISYRWDPNLKGLMRPANSLLSTVKQDFPDIRQKPPIFGPIFTNINLMGIAPICVMAKRKNGTNVGTLPSTVCNVTFTVDSNQQTYQTYTHNQFRHQPRFPKPPNITFPQGTLLDKSSRFCQGRPSSCSTRNFWFRPADYNQCLQISNLSSTAEWVLLDQTRNSLFWENKTKGANQSQTPCVQVLAGMTIATSYLGISAVSEFFGTSLTPLFHFHISTCLKTQGAFYICGQSIHQCLPSNWTGTCTIGYVTPDIFIAPGNLSLPIPIYGNSPLPRVRRAIHFIPLLAGLGILAGTGTGIAGITKASLTYSQLSKEIANNIDTMAKALTTMQEQIDSLAAVVLQNRRGLDMLTAAQGGICLALDEKCCFWVNQSGKVQDNIRQLLNQASSLRERATQGWLNWEGTWKWFSWVLPLTGPLVSLLLLLLFGPCLLNLITQFVSSRLQAIKLQTNLSAGRHPRNIQESPF [C46R] | decreasing interaction strength
2 | MGLLLLVLILTPSLAAYRHPDFPLLEKAQQLLQSTGSPYSTNCWLCTSSSTETPGTAYPASPREWTSIEAELHISYRWDPNLKGLMRPANSLLSTVKQDFPDIRQKPPIFGPIFTNISLMGIAPICVMAKRKNGTNVGTLPSTVCNVTFTVDSNQQTYQTYTHNQFRHQPRFPKPPNITFPQGTLLDKSSRFCQGRPSSCSTRNFWFRPADYNQCLQISNLSSTAEWVLLDQTRNSLFWENKTKGANQSQTPCVQVLAGMTIATSYLGISAVSEFFGTSLTPLFHFHISTCLKTQGAFYICGQSIHQCLPSNWTGTCTIGYVTPDIFIAPGNLSLPIPIYGNSPLPRVRRAIHFIPLLAGLGILAGTGTGIAGITKASLTYSQLSKEIANNIDTMAKALTTMQEQIDSLAAVVLQNRRGLDMLTAAQGGICLALDEKCCFWVNQSGKVQDNIRQLLNQASSLRERATQGWLNWEGTWKWFSWVLPLTGPLVSLLLLLLFGPCLLNLITQFVSSRLQAIKLQTNLSAGRHPRNIQESPF [N118S] | increasing interaction strength
3 | MGLLLLVLILTPSLAAYRHPDFPLLEKAQQLLQSTGSPYSTNCWLCTSSSTETPGTAYPASPREWTSIEAELHISYRWDPNLKGLMRPANSLLSTVKQDFPDIRQKPPIFGPIFTNINLMGIAPICVMAKRKQGTNVGTLPSTVCNVTFTVDSNQQTYQTYTHNQFRHQPRFPKPPNITFPQGTLLDKSSRFCQGRPSSCSTRNFWFRPADYNQCLQISNLSSTAEWVLLDQTRNSLFWENKTKGANQSQTPCVQVLAGMTIATSYLGISAVSEFFGTSLTPLFHFHISTCLKTQGAFYICGQSIHQCLPSNWTGTCTIGYVTPDIFIAPGNLSLPIPIYGNSPLPRVRRAIHFIPLLAGLGILAGTGTGIAGITKASLTYSQLSKEIANNIDTMAKALTTMQEQIDSLAAVVLQNRRGLDMLTAAQGGICLALDEKCCFWVNQSGKVQDNIRQLLNQASSLRERATQGWLNWEGTWKWFSWVLPLTGPLVSLLLLLLFGPCLLNLITQFVSSRLQAIKLQTNLSAGRHPRNIQESPF [N133Q] | decreasing interaction strength
4 | MGLLLLVLILTPSLAAYRHPDFPLLEKAQQLLQSTGSPYSTNCWLCTSSSTETPGTAYPASPREWTSIEAELHISYRWDPNLKGLMRPANSLLSTVKQDFPDIRQKPPIFGPIFTNINLMGIAPICVMAKRKNGTNVGTLPSTVCNVTFTVDSNQQTYQTYTHNQFRHQPRFPKPPNITFPQGTLLDKSSRFCQGRPSSCSTRNFWFRPADYNQCLQISNLSSTAEWVLLDQTRNSLFWENKTKGANQSQTPCVQVLAGMTIATSYLGISAVSEFFGTSLTPLFHFHISTCLKTQGAFYICGQSIHQCLPSQWTGTCTIGYVTPDIFIAPGNLSLPIPIYGNSPLPRVRRAIHFIPLLAGLGILAGTGTGIAGITKASLTYSQLSKEIANNIDTMAKALTTMQEQIDSLAAVVLQNRRGLDMLTAAQGGICLALDEKCCFWVNQSGKVQDNIRQLLNQASSLRERATQGWLNWEGTWKWFSWVLPLTGPLVSLLLLLLFGPCLLNLITQFVSSRLQAIKLQTNLSAGRHPRNIQESPF [N312Q] | decreasing interaction strength
5 | MGLLLLVLILTPSLAAYRHPDFPLLEKAQQLLQSTGSPYSTNCWLCTSSSTETPGTAYPASPREWTSIEAELHISYRWDPNLKGLMRPANSLLSTVKQDFPDIRQKPPIFGPIFTNINLMGIAPICVMAKRKNGTNVGTLPSTVCNVTFTVDSNQQTYQTYTHNQFRHQPRFPKPPNITFPQGTLLDKSSRFCQGRPSSCSTRNFWFRPADYNQCLQISNLSSTAEWVLLDQTRNSLFWENKTKGANQSQTPCVQVLAGMTIATSYLGISAVSEFFGTSLTPLFHFHISTCLKTQGAFYICGQSIHQCLPSNWTGTCTIGYVTPDIFIAPGQLSLPIPIYGNSPLPRVRRAIHFIPLLAGLGILAGTGTGIAGITKASLTYSQLSKEIANNIDTMAKALTTMQEQIDSLAAVVLQNRRGLDMLTAAQGGICLALDEKCCFWVNQSGKVQDNIRQLLNQASSLRERATQGWLNWEGTWKWFSWVLPLTGPLVSLLLLLLFGPCLLNLITQFVSSRLQAIKLQTNLSAGRHPRNIQESPF [N332Q] | decreasing interaction strength
6 | MGLLLLVLILTPSLAAYRHPDFPLLEKAQQLLQSTGSPYSTNCWLCTSSSTETPGTAYPASPREWTSIEAELHISYRWDPNLKGLMRPANSLLSTVKQDFPDIRQKPPIFGPIFTNINLMGIAPICVMAKRKNGTNVGTLPSTVCNVTFTVDSNQQTYQTYTHNQFRHQPRFPKPPNITFPQGTLLDKSSRFCQGRPSSCSTRNFWFRPADYNQCLQISNLSSTAEWVLLDQTRNSLFWENKTKGANQSQTPCVQVLAGMTIATSYLGISAVSEFFGTSLTPLFHFHISTCLKTQGAFYICGQSIHQCLPSNWTGTCTIGYVTPDIFIAPGNLSLPIPIYGNSPLPRVRRAIHFIPLLAGLGILAGMGTGIAGITKASLTYSQLSKEIANNIDTMAKALTTMQEQIDSLAAVVLQNRRGLDMLTAAQGGICLALDEKCCFWVNQSGKVQDNIRQLLNQASSLRERATQGWLNWEGTWKWFSWVLPLTGPLVSLLLLLLFGPCLLNLITQFVSSRLQAIKLQTNLSAGRHPRNIQESPF [T367M] | disrupting interaction strength
7 | MGLLLLVLILTPSLAAYRHPDFPLLEKAQQLLQSTGSPYSTNCWLCTSSSTETPGTAYPASPREWTSIEAELHISYRWDPNLKGLMRPANSLLSTVKQDFPDIRQKPPIFGPIFTNINLMGIAPICVMAKRKNGTNVGTLPSTVCNVTFTVDSNQQTYQTYTHNQFRHQPRFPKPPNITFPQGTLLDKSSRFCQGRPSSCSTRNFWFRPADYNQCLQISNLSSTAEWVLLDQTRNSLFWENKTKGANQSQTPCVQVLAGMTIATSYLGISAVSEFFGTSLTPLFHFHISTCLKTQGAFYICGQSIHQCLPSNWTGTCTIGYVTPDIFIAPGNLSLPIPIYGNSPLPRVRRAIHFIPLLAGLGILAGTGTGIAGITKASLTYSQLSKEIANNIDTMAKALTTMQEQIDSLAAVVLQNHRGLDMLTAAQGGICLALDEKCCFWVNQSGKVQDNIRQLLNQASSLRERATQGWLNWEGTWKWFSWVLPLTGPLVSLLLLLLFGPCLLNLITQFVSSRLQAIKLQTNLSAGRHPRNIQESPF [R417H] | decreasing interaction strength
8 | MGLLLLVLILTPSLAAYRHPDFPLLEKAQQLLQSTGSPYSTNCWLCTSSSTETPGTAYPASPREWTSIEAELHISYRWDPNLKGLMRPANSLLSTVKQDFPDIRQKPPIFGPIFTNINLMGIAPICVMAKRKNGTNVGTLPSTVCNVTFTVDSNQQTYQTYTHNQFRHQPRFPKPPNITFPQGTLLDKSSRFCQGRPSSCSTRNFWFRPADYNQCLQISNLSSTAEWVLLDQTRNSLFWENKTKGANQSQTPCVQVLAGMTIATSYLGISAVSEFFGTSLTPLFHFHISTCLKTQGAFYICGQSIHQCLPSNWTGTCTIGYVTPDIFIAPGNLSLPIPIYGNSPLPRVRRAIHFIPLLAGLGILAGTGTGIAGITKASLTYSQLSKEIANNIDTMAKALTTMQEQIDSLAAVVLQNRRGLDMLTAAQGGICLALDEKCCFWVQQSGKVQDNIRQLLNQASSLRERATQGWLNWEGTWKWFSWVLPLTGPLVSLLLLLLFGPCLLNLITQFVSSRLQAIKLQTNLSAGRHPRNIQESPF [N443Q] | disrupting interaction strength
9 | MGLLLLVLILTPSLAAYRHPDFPLLEKAQQLLQSTGSPYSTNCWLCTSSSTETPGTAYPASPREWTSIEAELHISYRWDPNLKGLMRPANSLLSTVKQDFPDIRQKPPIFGPIFTNINLMGIAPICVMAKRKNGTNVGTLPSTVCNVTFTVDSNQQTYQTYTHNQFRHQPRFPKPPNITFPQGTLLDKSSRFCQGRPSSCSTRNFWFRPADYNQCLQISNLSSTAEWVLLDQTRNSLFWENKTKGANQSQTPCVQVLAGMTIATSYLGISAVSEFFGTSLTPLFHFHISTCLKTQGAFYICGQSIHQCLPSNWTGTCTIGYVTPDIFIAPGNLSLPIPIYGNSPLPRVRRAIHFIPLLAGLGILAGTGTGIAGITKASLTYSQLSKEIANNIDTMAKALTTMQEQIDSLAAVVLQNRRGLDMLTAAQGGICLALDEKCCFWVNQSGKVQDNIRQLLNQASSLRERATQGWLNWEGTWKWFSWILPLTGPLVSLLLLLLFGPCLLNLITQFVSSRLQAIKLQTNLSAGRHPRNIQESPF [V483I] | decreasing interaction strength
10 | MGLLLLVLILTPSLAAYRHPDFPLLEKAQQLLQSTGSPYSTNCWLCTSSSTETPGTAYPASPREWTSIEAELHISYRWDPNLKGLMRPANSLLSTVKQDFPDIRQKPPIFGPIFTNINLMGIAPICVMAKRKNGTNVGTLPSTVCNVTFTVDSNQQTYQTYTHNQFRHQPRFPKPPNITFPQGTLLDKSSRFCQGRPSSCSTRNFWFRPADYNQCLQISNLSSTAEWVLLDQTRNSLFWENKTKGANQSQTPCVQVLAGMTIATSYLGISAVSEFFGTSLTPLFHFHISTCLKTQGAFYICGQSIHQCLPSNWTGTCTIGYVTPDIFIAPGNLSLPIPIYGNSPLPRVRRAIHFIPLLAGLGILAGTGTGIAGITKASLTYSQLSKEIANNIDTMAKALTTMQEQIDSLAAVVLQNRRGLDMLTAAQGGICLALDEKCCFWVNQSGKVQDNIRQLLNQASSLRERATQGWLNWEGTWKWFSWVLPLTGPLVSLLLLLLFGPCLLNLITQFVSSRLQAIKLQMNLSAGRHPRNIQESPF [T522M] | decreasing interaction strength
